Experimental findings from patent publication US12630596B2, “Engineered lysin-human defensin protein” (priority 2018, dated 2026) are described below.

Entries after “also recorded” stand apart in the source; their conditions may differ.

Series [1] relates to C. difficile R20291 spores. Briefly: Treatment efficacy in the mouse model of CDI. Particulars: mice. The class given is in vivo, C57BL/6 mice. The protocol: After 5 days of antibiotic pretreatment, mice were given autoclaved water for 2 days, followed by a single dose of clindamycin (10 mg/kg) intraperitoneally, 1 day before (day-1) challenge with C. difficile R20291 spores by gavage (day 0). The first group (R20291+PB) was infected with 10^6 C. difficile R20291 spores on day 0, and was given PBS (PB) by gavage at 4 h after spore gavage, followed by administration of PB by gavage twice a day from the first day (day 1) to the seventh day (day 7) after spore gavage. The second group (LHD+R20291) was given 400 μg LHD by gavage at 4 h after spore gavage, followed by treatments of 400 μg LHD by gavage twice a day from day 1 to day 7 after spore gavage.
C57BL/6 mice (6-week-old) were purchased from Charles River Laboratories, MA. The mice were housed in groups of 5 animals per cage under the same conditions. All studies followed the Guide for the Care and Use of Laboratory Animals of the National Institutes of Health, and were approved by the Institutes Animal Care and Use Committee (IACUC) at University of South Florida under the animal protocol number 1S00003756. Mouse model of CDI was established as described previously (Zhang, Zhao et al. 2015). The experimental design is illustrated in FIG. 6. Briefly, twenty BL6/C57 female mice were divided into two groups (n=10). Before challenge, mice were pre-treated with antibiotics mixture (ampicillin (200 mg/kg), kanamycin (40 mg/kg), gentamicin (3.5 mg/kg), colistin (4.2 mg/kg), metronidazole (21.5 mg/kg) and vancomycin (4.5 mg/kg)) in drinking water for five days. After that, all mice were given autoclaved water for 2 days, followed by a single dose of clindamycin (10 mg/kg) intraperitoneally 1 day before (day-1) challenge with C. difficile R20291 spores at 10^6 by gavage (day 0). At 4-hr post infection, one group of mice (R20291+LHD) were given a dose of 400 μg LHD in 200 μL of PBS by gavage, and another group of mice (R20291+PB) received sterilized PBS as control. From the first day (day 1) to the seventh day (day 7) after infection, mice were given a dose of 400 μg LHD or PBS by gavage twice a day. Weight changes, diarrhea, and survivals of the mice were recorded during the 7-day monitoring period. Fecal samples from mice were collected at days 0, 1, 3, 5, and 7 post challenge for quantitating C. difficile spores and TcdA/TcdB concentration.
Fecal samples were collected on days 1, 3, 5, 7 post-infection. 50 mg of feces were dissolved with 500 μl sterile MilliQ water for 16 h at 4° C., and then treated with 500 μl of purified ethanol (Sigma-Aldrich) for 60 min at room temperature to kill vegetative cells. Samples were vortexed, serially diluted and plated onto selective medium supplemented with taurocholate (0.1% w/v), Cefoxitin (16 μg/mL), L-cycloserine (250 μg/mL). The plates were incubated anaerobically at 37° C. for 48 h, colonies counted and results expressed as the CFU/gram of feces.
After challenges with C. difficile spores, feces were collected and dissolved in an equal volume (g/ml) of sterile PBS containing protease inhibitor cocktail and the supernatants were collected after centrifugation and stored at −80° C. TcdA/TcdB concentrations in the fecal samples of […] were determined by ELISA. Brieflly, 96-well Costar microplates were coated with 100 μl of anti-TcdA antibody (1 μg/ml) and anti-TcdB antibody (1 μg/ml) overnight in phosphate-buffered saline (PBS) at 4° C. On the next day, each well was blocked with 300 ul of blocking buffer (PBS+5% dry milk) at RT for 2 hrs. Next, standards and samples were added to each well (100 μl) in duplicate and incubated for 90 min at 25° C. After another set of washes, HRP-chicken anti-C. difficile Toxin A or B (1:5,000 dilution in PBS, Gallus Immunotech, Shirley, MA) was added to wells for 30 min at RT. A final set of 3 washes preceded the addition of the TMB Microwell Peroxidase Substrate for 20 minutes at RT in the dark. […]

Series [2] has as its target Clostridium difficile toxin B (TcdB) (Clostridioides difficile, UniProt P18177). Briefly: Inhibition of TcdB cytotoxicity in CT26 cells (cell rounding, non-glucosylated Rac1 Western blot). The class given is cell-based. Particulars: pre-treatment 750 ng/ml 1 hr, TcdB 15 ng/ml 5 hrs. On the procedure:
(FIG. 5A) LHD inhibits TcdB-induced cell rounding. CT26 cells in 12-well plates were exposed to HD or LHD at 750 ng/ml (50 times of TcdB concentration) or nothing for 1 hour, followed by exposure to TcdB at 15 ng/ml for 5 hours. (FIG. 5B) Western-blot analysis of non-glucosylated Rac1 in CT26 cells treated with TcdB in the presence or absence of LHD or HD. TcdB glucosylates Rac1 in cells, serving as a readout for toxin cytotoxicity. Quantitation of Rac1 levels in Western-blot was shown in low panel (*p<0.05). (FIG. 5C) CT26 cells were lysed, and the cytosolic fraction was exposed to TcdB (15 ng/ml) with or without HD at 750 ng/ml (50 times of TcdB concentration) or LHD at 1500 ng/ml (same molecular concentration as HD) or nothing for 1 h followed by Western Blot analysis using a monoclonal antibody that only recognizes non-glucosylated Rac1. β-actin was used as an equal loading control. Quantitation of Rac1 levels in Western-blot was shown in low panel (****p<0.0001).
It was reported that the human defensin protein HD5 (HD) could inhibit TcdB (Giesemann, Guttenberg et al. 2008). Therefore, we evaluated the inhibitory effects of LHD and HD on TcdB. Briefly, CT26 cells in 12-well plates were exposed to LHD, synthesized HD or PBS at 750 ng/ml (50 times of TcdB concentration) for 1 hr, followed by exposure to TcdB at 15 ng/ml for 5 hrs. Total cell lysates were subjected to 12% SDS-PAGE separation, and transferred onto a Nylon membrane. Following blocking for 1 hr at room temperature with 5% skim milk, the membrane was incubated overnight at 4° C. with RAC1 antibody (1:1000, Cat: 610650, BD Biosciences) and β-actin antibody (1:10000, Cat: A5441, Sigma-Aldrich).

Setting [3] is: 400 μg LHD by gavage twice a day, vs PBS.
The mark [4] stands for this setting: R20291 spores, 400 μg LHD by gavage twice a day.

Sequence of Clostridium difficile toxin B (TcdB) (P18177 whole entry): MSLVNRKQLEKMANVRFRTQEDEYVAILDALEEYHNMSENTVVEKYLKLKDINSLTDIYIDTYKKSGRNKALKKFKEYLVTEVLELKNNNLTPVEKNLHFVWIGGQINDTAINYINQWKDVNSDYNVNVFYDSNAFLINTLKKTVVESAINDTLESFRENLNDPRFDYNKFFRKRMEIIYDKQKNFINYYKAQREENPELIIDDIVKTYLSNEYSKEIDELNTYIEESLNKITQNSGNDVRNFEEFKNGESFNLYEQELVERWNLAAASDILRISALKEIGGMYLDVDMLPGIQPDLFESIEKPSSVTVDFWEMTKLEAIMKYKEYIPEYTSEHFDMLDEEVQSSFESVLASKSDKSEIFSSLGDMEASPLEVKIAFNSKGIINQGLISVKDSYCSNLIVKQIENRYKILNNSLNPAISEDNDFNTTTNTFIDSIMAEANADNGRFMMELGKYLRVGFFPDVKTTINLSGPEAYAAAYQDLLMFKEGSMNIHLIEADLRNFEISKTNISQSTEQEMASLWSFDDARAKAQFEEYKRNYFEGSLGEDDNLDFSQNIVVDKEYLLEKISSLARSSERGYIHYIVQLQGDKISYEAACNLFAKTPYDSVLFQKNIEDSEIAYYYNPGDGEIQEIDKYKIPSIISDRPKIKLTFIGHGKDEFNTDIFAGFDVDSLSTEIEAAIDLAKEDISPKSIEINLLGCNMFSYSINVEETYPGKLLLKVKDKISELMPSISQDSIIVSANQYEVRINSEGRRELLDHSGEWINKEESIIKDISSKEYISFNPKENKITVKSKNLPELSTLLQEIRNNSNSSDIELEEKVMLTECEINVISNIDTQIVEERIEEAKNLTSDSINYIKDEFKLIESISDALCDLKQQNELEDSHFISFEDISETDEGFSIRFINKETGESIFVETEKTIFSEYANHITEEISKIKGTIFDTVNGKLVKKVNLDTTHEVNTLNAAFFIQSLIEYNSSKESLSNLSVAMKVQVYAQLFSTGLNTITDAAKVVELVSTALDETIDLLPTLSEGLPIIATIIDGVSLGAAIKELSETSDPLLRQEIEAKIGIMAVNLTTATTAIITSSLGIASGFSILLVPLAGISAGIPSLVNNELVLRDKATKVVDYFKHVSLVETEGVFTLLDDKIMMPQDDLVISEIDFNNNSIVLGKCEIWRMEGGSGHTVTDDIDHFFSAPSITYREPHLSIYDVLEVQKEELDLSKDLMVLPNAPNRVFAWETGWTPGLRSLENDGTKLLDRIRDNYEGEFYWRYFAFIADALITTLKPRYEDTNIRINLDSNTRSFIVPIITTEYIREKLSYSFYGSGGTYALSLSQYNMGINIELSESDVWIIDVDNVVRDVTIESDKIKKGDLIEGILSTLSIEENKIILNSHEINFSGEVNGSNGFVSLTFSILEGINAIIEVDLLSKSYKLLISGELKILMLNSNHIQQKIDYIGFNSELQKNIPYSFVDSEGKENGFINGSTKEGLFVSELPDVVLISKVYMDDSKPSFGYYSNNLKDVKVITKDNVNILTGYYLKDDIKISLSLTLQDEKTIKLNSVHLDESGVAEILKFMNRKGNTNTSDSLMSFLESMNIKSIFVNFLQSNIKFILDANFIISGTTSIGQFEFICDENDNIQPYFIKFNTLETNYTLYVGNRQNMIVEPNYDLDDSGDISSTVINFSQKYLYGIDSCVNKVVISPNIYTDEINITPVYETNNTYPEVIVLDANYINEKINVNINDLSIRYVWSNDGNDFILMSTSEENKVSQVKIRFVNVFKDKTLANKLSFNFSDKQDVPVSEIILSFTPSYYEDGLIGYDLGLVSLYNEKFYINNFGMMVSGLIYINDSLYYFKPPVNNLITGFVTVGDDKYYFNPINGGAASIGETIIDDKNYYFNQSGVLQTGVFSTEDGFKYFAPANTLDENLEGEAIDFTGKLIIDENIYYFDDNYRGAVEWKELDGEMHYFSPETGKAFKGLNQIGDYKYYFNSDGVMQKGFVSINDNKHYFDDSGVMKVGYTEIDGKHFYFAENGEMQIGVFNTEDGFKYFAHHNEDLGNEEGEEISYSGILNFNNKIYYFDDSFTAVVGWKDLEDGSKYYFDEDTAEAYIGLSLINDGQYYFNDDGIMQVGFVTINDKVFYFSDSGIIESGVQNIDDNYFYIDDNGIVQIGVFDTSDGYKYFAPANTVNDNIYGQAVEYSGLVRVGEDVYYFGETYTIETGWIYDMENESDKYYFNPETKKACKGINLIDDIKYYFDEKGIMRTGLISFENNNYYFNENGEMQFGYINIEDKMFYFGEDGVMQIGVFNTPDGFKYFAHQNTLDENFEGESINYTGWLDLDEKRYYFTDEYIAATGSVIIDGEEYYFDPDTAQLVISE

B1: LHD: Fusion of phage phiC2 lysin catalytic domain (LCD, 179aa), (GGGGS)3 linker and human alpha-defensin 5; SEQ ID NO:1 (protein)
chain: MKICITVGHSILKSGACTSADGVVNEYQYNKSLAPVLADTFRKEGHKVDVIICPEKQFKTKNEEKSYKIPRVNSGGYDLLIELHLNASNGQGKGSEVLYYSNKGLEYATRICDKLGTVFKNRGAKLDKRLYILNSSKPTAVLIESFFCDNKEDYDKAKKLGHEGIAKLIVEGVLNKNINGGGGSGGGGSGGGGSATCYCRTGRCATRESLSGVCEISGRLYRLCCR
B1: in series [1] (setting [3]), the “number of C. difficile spores in feces” value is recorded as “significantly decreased” and the “toxin-level in feces (TcdA, TcdB)” value is reported as “significantly decreased”. Besides, the survival result in series [1] (7-day experimental period, 400 μg LHD by gavage twice a day) is reported as “all mice receiving the treatment of LHD survived”. Also, in series [1] (setting [4]), the diarrhea rate was 60% and the duration of diarrhea turned out to be 3 days. Besides, in series [1] (R20291 spores, 400 μg LHD by gavage twice a day, vs PBS), the weight loss entry was “decreased both weight loss and diarrhea rate significantly; also recorded: significantly less weight”. Besides, in series [1] (from 3 dpi to 7 dpi, vs PBS), the weight recovery result was “slower”. Further, in series [2], the “cell rounding caused by TcdB” value is “decreased cell rounding; also recorded: comparable to human defensin peptide HD5” and the “non-glucosylated Rac1 in cells (readout of cytotoxicity of TcdB)” value is given as “significant increase”.
